Experimental data: PMC5750462 (Emerging Microbes & Infections, 2017)

Molecular target: the molecule itself
Assay: BLI; […] (PBS, 0.01% BSA, 0.002% Tween-20); […]

B1: recombinant N1-165-domain of wild-type (wt) matrix protein 1 (M1), influenza A virus A/WSN/33 (domain or fragment)
chain: MSLLTEVETYVLSIVPSGPLKAEIAQRLEDVFAGKNTDLEVLMEWLKTRPILSPLTKGILGFVFTLTVPSERGLQRRRFVQNALNGNGDPNNMDKAVKLYRKLKREITFHGAKEIALSYSAGALASCMGLIYNRMGAVTTEVAFGLVCATCEQIADSQHRSHRQM
B1: binds.
